From patent US20230220098A1, “THERAPEUTIC DRUG FOR POLYCYTHEMIA” (PERSEUS PROTEOMICS INC., priority 2019, published 2023)

Assays:
mouse TfR = mouse TfR (Mus musculus, UniProt Q62351); assay: Cross-reactivity of TfR436 antibody with mouse TfR; type: binding
[1] = test system: soluble wild-type TfR (sTfR) and TfR mutant fragments (MF1 to MF7); assay: ELISA reactivity with soluble wild-type TfR and TfR mutant fragments (binding site identification); design: species or system human; conditions: TfR436 1 ug/mL; MF5 (positions 629, 630 and 633 substituted); FIG. 2
Procedure: (§1) A neomycin resistance gene and a DHFR gene were incorporated into the expression vector pCAGGS (Non-Patent Document 2: Niwa et al. 1991), and thereafter, the synthesized genes were each inserted into the multicloning site of the obtained expression vector, so as to produce a pCAGGS-Neo-DHFR-sTFR-myc-his expression plasmid. Using Expifectamine (Invitrogen), the Expi293 cells (Invitrogen) were transfected with the above-described plasmid, and were then cultured at 37° C. in 8% CO2 at 135 rpm for 5 days. Thereafter, a culture supernatant was recovered by centrifugation. A HisTrapHP (GE Healthcare) column was connected with AKTA prime (GE Healthcare), and sTfR or MF1 to MF7 were then purified using 20 mM Imidazole/DPBS as a binding buffer and 500 mM Imidazole/DPBS as an elution buffer. The eluted protein was subjected to buffer exchange with 30 mM HEPES, 5% trehalose, pH 7.2, by using a Zeba spin column (Thermo scientific).
(§2) The thus purified sTfR or MF1 to MF7 were diluted with PBST (Phosphate Buffered Saline with Tween 20, TaKaRa), and the diluted solutions were prepared at 7 stages by 3-fold dilution from 600 ng/mL. […] Thereafter, the absorbance at 450 nm (ref. 620 nm) was measured using a plate reader.

[2] = biological target: T1, soluble wild-type TfR (sTfR) and TfR mutant fragments (MF1 to MF7) (Homo sapiens, UniProt P02786); assay: as above; conditions: suggested from mutant fragment reactivity
T1 construct: A human TfR extracellular domain (the amino acids at positions 89 to 760); made in house; host or cells: Expi293 cells
Procedure: as §1, §2

HEL cells = assay: Combined effects of TfR436 and hydroxyurea on cell growth and cell death; type: cell-based; conditions: 72 hours
Procedure: HEL cells were cultured in an RPMI-1640 (Sigma-Aldrich)+10% FBS (Sigma-Aldrich)+1% PenStrep (Gibco) medium, and were then adjusted to 20000 cells/mL with the same medium as described above. Hydroxyurea (Wako Pure Chemical Industries, Ltd.) was weighed and was then dissolved in a concentration of 100 mM in distilled water for injection (Otsuka Pharmaceutical). The thus adjusted cell solution was seeded on a 96-well plate (Thermo SCIENTIFIC) in an amount of 100 μL/well. […]
From the plate after completion of the culture, the cultured cells in each well were dispensed into a V-bottom plate (Costar) in an amount of 100 μL, while pipetting. […] Then, the fluorescence of FL2 and the number of cells were measured. From the obtained results, the number of living cells (PI negative) and the number of dead cells (PI positive) were calculated, and thereafter, Viability (the number of PI-negative cells/the total number of cells×100) (%) and cell death percentage (100−Viability) (%) were calculated. Furthermore, the growth percentage in each well was calculated, when the number of living cells in the cell growth control was set to be 100%. […]

T1 sequence (P02786 89-760, change not shown): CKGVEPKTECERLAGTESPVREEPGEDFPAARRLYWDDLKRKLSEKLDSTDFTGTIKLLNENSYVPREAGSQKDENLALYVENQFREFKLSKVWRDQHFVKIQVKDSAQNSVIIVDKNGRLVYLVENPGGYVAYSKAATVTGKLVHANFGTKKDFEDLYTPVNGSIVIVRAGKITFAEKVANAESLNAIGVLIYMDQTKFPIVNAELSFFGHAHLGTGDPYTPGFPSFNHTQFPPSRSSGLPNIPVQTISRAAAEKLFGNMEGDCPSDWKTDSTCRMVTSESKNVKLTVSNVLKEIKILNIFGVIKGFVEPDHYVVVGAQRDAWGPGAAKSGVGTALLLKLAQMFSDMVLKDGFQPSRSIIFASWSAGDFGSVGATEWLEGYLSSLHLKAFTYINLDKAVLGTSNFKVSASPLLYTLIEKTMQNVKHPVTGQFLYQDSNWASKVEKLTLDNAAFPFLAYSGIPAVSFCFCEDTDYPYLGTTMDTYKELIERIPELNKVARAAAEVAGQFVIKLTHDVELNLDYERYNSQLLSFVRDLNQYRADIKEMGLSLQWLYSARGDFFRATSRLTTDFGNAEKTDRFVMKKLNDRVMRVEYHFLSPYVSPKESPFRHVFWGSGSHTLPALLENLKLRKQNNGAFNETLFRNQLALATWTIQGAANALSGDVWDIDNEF
mouse TfR, sequence (Q62351 whole entry, the tested form may be a part): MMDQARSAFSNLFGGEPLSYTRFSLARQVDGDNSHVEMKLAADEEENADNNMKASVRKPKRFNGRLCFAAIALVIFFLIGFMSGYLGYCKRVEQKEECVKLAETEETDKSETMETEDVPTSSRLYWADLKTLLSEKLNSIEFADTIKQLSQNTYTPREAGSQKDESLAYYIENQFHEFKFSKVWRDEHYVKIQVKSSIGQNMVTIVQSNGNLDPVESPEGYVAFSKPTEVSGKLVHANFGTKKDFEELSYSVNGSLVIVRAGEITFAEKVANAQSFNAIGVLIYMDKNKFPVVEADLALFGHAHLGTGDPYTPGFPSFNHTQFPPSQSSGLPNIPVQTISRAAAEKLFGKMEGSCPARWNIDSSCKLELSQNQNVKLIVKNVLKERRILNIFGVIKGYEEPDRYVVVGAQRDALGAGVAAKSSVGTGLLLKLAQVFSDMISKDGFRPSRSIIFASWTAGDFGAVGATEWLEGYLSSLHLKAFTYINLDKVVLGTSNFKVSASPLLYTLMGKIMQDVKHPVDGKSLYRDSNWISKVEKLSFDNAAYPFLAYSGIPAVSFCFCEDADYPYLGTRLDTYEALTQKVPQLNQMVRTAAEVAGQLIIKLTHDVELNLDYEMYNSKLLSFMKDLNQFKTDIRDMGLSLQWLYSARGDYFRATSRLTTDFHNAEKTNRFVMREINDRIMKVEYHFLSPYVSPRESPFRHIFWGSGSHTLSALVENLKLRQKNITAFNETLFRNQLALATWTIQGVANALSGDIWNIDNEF

B1: TfR436: anti-human transferrin receptor antibody, VH SEQ ID NO: 7 and VL SEQ ID NO: 8, described in WO2014/073641; called PPMX-T003 in Tables 3 and 4 (antibody, listed as Homo sapiens, V domains shown)
VH: DVQLVQSGGGVVQPGRSLRLSCAASGFPFKSYGMHWVRQAPGKGLEWVAVISYDGSNKYYADSVKGRFTISRDNSKNTLYLQMNSLRGEDTAVYYCARDSNFWSGYYSPVDVWGQGTTVTVSS
VL: NFMLTQPHSVSESPGKTVTISCTRSSGSIASNSVQWYQQRPGSAPITVIYEDTQRPSGVPDRFSGSIDSSSNSASLTISGLQTEDEADYYCQSYDSAYHWVFGGGTKLAVL
With B1 the “cross-reactivity with mouse TfR” value (mouse TfR) was “did not cross-react”, the “reactivity with TfR mutant fragment MF5” value [1] was “a reduction in the reactivity” and the epitope recognized [2] was “amino acids at positions 629 to 633 of TfR”. The “cell growth inhibition, combined use with hydroxyurea” value (HEL cells; Table 3) was “synergistic cell growth inhibition effects were observed from a half or more of combined uses” and the “cell death percentage, combined use with hydroxyurea” value (HEL cells; all combined uses except lowest concentrations of both, Table 4) was “synergistic cell death-enhancing effects”.
